Laboratory results as given in paper PMC6804253, “Predicting and Experimentally Validating Hot-Spot Residues at Protein–Protein Interfaces” (ACS Chemical Biology, 2019).

How the values were obtained:
[1] = test system: PPIs of the SKEMPI data set (by PDBID); assay: SKEMPI experimental ΔΔG, single mutations to alanine; assay type: binding; settings: for sk_class: class of the SKEMPI experimental ΔΔG; for sk_class (class of the SKEMPI experimental ΔΔG): class by ΔΔG threshold 4.184 kJ/mol, ref SKEMPI
[2] = test system: PPIs of the SKEMPI data set (by PDBID); settings: single mutation to alanine, ref SKEMPI, cited from earlier work; for sk_ddG_kJ (SKEMPI experimental ΔΔG): complex given by PDBID, residue group SQNT; for sk_ddG_kJ (SKEMPI experimental ΔΔG, mutation to alanine): PPI given by PDBID, sheet sortedByGroup, r_group DERKH

| Molecule | sk_class [1] | sk_ddG_kJ (SKEMPI experimental ΔΔG) [2] | sk_class (class of the SKEMPI experimental ΔΔG) [1] | sk_ddG_kJ (SKEMPI experimental ΔΔG, mutation to alanine) [2] |
| --- | --- | --- | --- | --- |
| 1DAN ST47A (protein, UniProt P13726 33-295, looked up, variant S47A) Tissue factor: SGTTNTVAAYNLTWKSTNFKTILEWEPKPVNQVYTVQISTKSGDWKAKCFYTTDTECDLTDEIVKDVKQTYLARVFSYPAGNVESTGSAGEPLYENSPEFTPYLETNLGQPTIQSFEQVGTKVNVTVEDERTLVRRNNTFLSLRDVFGKDLIYTLYYWKSSSSGKKTAKTNTNEFLIDVDKGENYCFSVQAVIPSRTVNRKSTDSPVECMGQEKGEFREIFYIIGAVVFVVIILVIILAISLHKCRKAGVGQSWKENSPLNVS | Neutral (neutral (little effect) 4.184 kJ/mol < ΔΔG > −4.184 kJ/mol) | -0.54 kJ | – | – |
| 1DAN TT60A (protein, UniProt P13726 33-295, looked up, variant T60A) Tissue factor: SGTTNTVAAYNLTWKSTNFKTILEWEPKPVNQVYTVQISTKSGDWKSKCFYTTDTECDLADEIVKDVKQTYLARVFSYPAGNVESTGSAGEPLYENSPEFTPYLETNLGQPTIQSFEQVGTKVNVTVEDERTLVRRNNTFLSLRDVFGKDLIYTLYYWKSSSSGKKTAKTNTNEFLIDVDKGENYCFSVQAVIPSRTVNRKSTDSPVECMGQEKGEFREIFYIIGAVVFVVIILVIILAISLHKCRKAGVGQSWKENSPLNVS | Positive (positive (a hot residue) ΔΔG ≥ 4.184 kJ/mol) | 9.67 kJ | – | – |
| 1A4Y DA435A (protein, UniProt P13489 2-461, looked up, variant D435A) Ribonuclease inhibitor: SLDIQSLDIQCEELSDARWAELLPLLQQCQVVRLDDCGLTEARCKDISSALRVNPALAELNLRSNELGDVGVHCVLQGLQTPSCKIQKLSLQNCCLTGAGCGVLSSTLRTLPTLQELHLSDNLLGDAGLQLLCEGLLDPQCRLEKLQLEYCSLSAASCEPLASVLRAKPDFKELTVSNNDINEAGVRVLCQGLKDSPCQLEALKLESCGVTSDNCRDLCGIVASKASLRELALGSNKLGDVGMAELCPGLLHPSSRLRTLWIWECGITAKGCGDLCRVLRAKESLKELSLAGNELGDEGARLLCETLLEPGCQLESLWVKSCSFTAACCSHFSSVLAQNRFLLELQISNNRLEDAGVRELCQGLGQPGSVLRVLWLADCDVSDSSCSSLAATLLANHSLRELDLSNNCLGDAGILQLVESVRQPGCLLEQLVLYAIYWSEEMEDRLQALEKDKPSLRVIS | – | – | Positive (positive (a hot residue) ΔΔG ≥ 4.184 kJ/mol) | 14.56 kJ |
| 1A4Y RA457A (protein, UniProt P13489 2-461, looked up, variant R457A) Ribonuclease inhibitor: SLDIQSLDIQCEELSDARWAELLPLLQQCQVVRLDDCGLTEARCKDISSALRVNPALAELNLRSNELGDVGVHCVLQGLQTPSCKIQKLSLQNCCLTGAGCGVLSSTLRTLPTLQELHLSDNLLGDAGLQLLCEGLLDPQCRLEKLQLEYCSLSAASCEPLASVLRAKPDFKELTVSNNDINEAGVRVLCQGLKDSPCQLEALKLESCGVTSDNCRDLCGIVASKASLRELALGSNKLGDVGMAELCPGLLHPSSRLRTLWIWECGITAKGCGDLCRVLRAKESLKELSLAGNELGDEGARLLCETLLEPGCQLESLWVKSCSFTAACCSHFSSVLAQNRFLLELQISNNRLEDAGVRELCQGLGQPGSVLRVLWLADCDVSDSSCSSLAATLLANHSLRELDLSNNCLGDAGILQLVESVRQPGCLLEQLVLYDIYWSEEMEDRLQALEKDKPSLAVIS | – | – | Neutral (neutral (little effect) 4.184 kJ/mol < ΔΔG > −4.184 kJ/mol) | -0.92 kJ |
| 1EMV NA24A (protein, UniProt P13479 1-86, looked up, variant N24A) Colicin-E9 immunity protein: MELKHSISDYTEAEFLQLVTTICAADTSSEEELVKLVTHFEEMTEHPSGSDLIYYPKEGDDDSPSGIVNTVKQWRAANGKSGFKQG | Neutral (neutral (little effect) 4.184 kJ/mol < ΔΔG > −4.184 kJ/mol) | 0.59 kJ | – | – |
| 1DAN TT21A (protein, UniProt P13726 33-251, looked up, variant T21A, extracellular domain) extracellular domain: SGTTNTVAAYNLTWKSTNFKAILEWEPKPVNQVYTVQISTKSGDWKSKCFYTTDTECDLTDEIVKDVKQTYLARVFSYPAGNVESTGSAGEPLYENSPEFTPYLETNLGQPTIQSFEQVGTKVNVTVEDERTLVRRNNTFLSLRDVFGKDLIYTLYYWKSSSSGKKTAKTNTNEFLIDVDKGENYCFSVQAVIPSRTVNRKSTDSPVECMGQEKGEFRE | Neutral (neutral (little effect) 4.184 kJ/mol < ΔΔG > −4.184 kJ/mol) | -0.67 kJ | – | – |
| 1DAN TU203A (protein, UniProt P13726 33-251, looked up, variant T203A, extracellular domain) extracellular domain: SGTTNTVAAYNLTWKSTNFKTILEWEPKPVNQVYTVQISTKSGDWKSKCFYTTDTECDLTDEIVKDVKQTYLARVFSYPAGNVESTGSAGEPLYENSPEFTPYLETNLGQPTIQSFEQVGTKVNVTVEDERTLVRRNNTFLSLRDVFGKDLIYTLYYWKSSSSGKKTAKTNTNEFLIDVDKGENYCFSVQAVIPSRTVNRKSADSPVECMGQEKGEFRE | Neutral (neutral (little effect) 4.184 kJ/mol < ΔΔG > −4.184 kJ/mol) | 0.59 kJ | – | – |
| 1DAN TU132A (protein, UniProt P13726 33-251, looked up, variant T132A, extracellular domain) extracellular domain: SGTTNTVAAYNLTWKSTNFKTILEWEPKPVNQVYTVQISTKSGDWKSKCFYTTDTECDLTDEIVKDVKQTYLARVFSYPAGNVESTGSAGEPLYENSPEFTPYLETNLGQPTIQSFEQVGTKVNVTVEDERALVRRNNTFLSLRDVFGKDLIYTLYYWKSSSSGKKTAKTNTNEFLIDVDKGENYCFSVQAVIPSRTVNRKSTDSPVECMGQEKGEFRE | Neutral (neutral (little effect) 4.184 kJ/mol < ΔΔG > −4.184 kJ/mol) | 0.00 kJ | – | – |
| 1DAN NU107A (protein, UniProt P13726 33-251, looked up, variant N107A, extracellular domain) extracellular domain: SGTTNTVAAYNLTWKSTNFKTILEWEPKPVNQVYTVQISTKSGDWKSKCFYTTDTECDLTDEIVKDVKQTYLARVFSYPAGNVESTGSAGEPLYENSPEFTPYLETALGQPTIQSFEQVGTKVNVTVEDERTLVRRNNTFLSLRDVFGKDLIYTLYYWKSSSSGKKTAKTNTNEFLIDVDKGENYCFSVQAVIPSRTVNRKSTDSPVECMGQEKGEFRE | Neutral (neutral (little effect) 4.184 kJ/mol < ΔΔG > −4.184 kJ/mol) | 0.00 kJ | – | – |
| 1DAN QU110A (protein, UniProt P13726 33-251, looked up, variant Q110A, extracellular domain) extracellular domain: SGTTNTVAAYNLTWKSTNFKTILEWEPKPVNQVYTVQISTKSGDWKSKCFYTTDTECDLTDEIVKDVKQTYLARVFSYPAGNVESTGSAGEPLYENSPEFTPYLETNLGAPTIQSFEQVGTKVNVTVEDERTLVRRNNTFLSLRDVFGKDLIYTLYYWKSSSSGKKTAKTNTNEFLIDVDKGENYCFSVQAVIPSRTVNRKSTDSPVECMGQEKGEFRE | Positive (positive (a hot residue) ΔΔG ≥ 4.184 kJ/mol) | 5.44 kJ | – | – |
| 1DAN SU163A (protein, UniProt P13726 33-251, looked up, variant S163A, extracellular domain) extracellular domain: SGTTNTVAAYNLTWKSTNFKTILEWEPKPVNQVYTVQISTKSGDWKSKCFYTTDTECDLTDEIVKDVKQTYLARVFSYPAGNVESTGSAGEPLYENSPEFTPYLETNLGQPTIQSFEQVGTKVNVTVEDERTLVRRNNTFLSLRDVFGKDLIYTLYYWKSSSAGKKTAKTNTNEFLIDVDKGENYCFSVQAVIPSRTVNRKSTDSPVECMGQEKGEFRE | Neutral (neutral (little effect) 4.184 kJ/mol < ΔΔG > −4.184 kJ/mol) | 0.08 kJ | – | – |
| 1DAN TT52A (protein, UniProt P13726 33-251, looked up, variant T52A, extracellular domain) extracellular domain: SGTTNTVAAYNLTWKSTNFKTILEWEPKPVNQVYTVQISTKSGDWKSKCFYATDTECDLTDEIVKDVKQTYLARVFSYPAGNVESTGSAGEPLYENSPEFTPYLETNLGQPTIQSFEQVGTKVNVTVEDERTLVRRNNTFLSLRDVFGKDLIYTLYYWKSSSSGKKTAKTNTNEFLIDVDKGENYCFSVQAVIPSRTVNRKSTDSPVECMGQEKGEFRE | Neutral (neutral (little effect) 4.184 kJ/mol < ΔΔG > −4.184 kJ/mol) | 1.67 kJ | – | – |
| 1DAN TU172A (protein, UniProt P13726 33-251, looked up, variant T172A, extracellular domain) extracellular domain: SGTTNTVAAYNLTWKSTNFKTILEWEPKPVNQVYTVQISTKSGDWKSKCFYTTDTECDLTDEIVKDVKQTYLARVFSYPAGNVESTGSAGEPLYENSPEFTPYLETNLGQPTIQSFEQVGTKVNVTVEDERTLVRRNNTFLSLRDVFGKDLIYTLYYWKSSSSGKKTAKTNANEFLIDVDKGENYCFSVQAVIPSRTVNRKSTDSPVECMGQEKGEFRE | Neutral (neutral (little effect) 4.184 kJ/mol < ΔΔG > −4.184 kJ/mol) | -0.08 kJ | – | – |
| 1DAN TU139A (protein, UniProt P13726 33-251, looked up, variant T139A, extracellular domain) extracellular domain: SGTTNTVAAYNLTWKSTNFKTILEWEPKPVNQVYTVQISTKSGDWKSKCFYTTDTECDLTDEIVKDVKQTYLARVFSYPAGNVESTGSAGEPLYENSPEFTPYLETNLGQPTIQSFEQVGTKVNVTVEDERTLVRRNNAFLSLRDVFGKDLIYTLYYWKSSSSGKKTAKTNTNEFLIDVDKGENYCFSVQAVIPSRTVNRKSTDSPVECMGQEKGEFRE | Neutral (neutral (little effect) 4.184 kJ/mol < ΔΔG > −4.184 kJ/mol) | -0.04 kJ | – | – |
| 1DAN ST42A (protein, UniProt P13726 33-251, looked up, variant S42A, extracellular domain) extracellular domain: SGTTNTVAAYNLTWKSTNFKTILEWEPKPVNQVYTVQISTKAGDWKSKCFYTTDTECDLTDEIVKDVKQTYLARVFSYPAGNVESTGSAGEPLYENSPEFTPYLETNLGQPTIQSFEQVGTKVNVTVEDERTLVRRNNTFLSLRDVFGKDLIYTLYYWKSSSSGKKTAKTNTNEFLIDVDKGENYCFSVQAVIPSRTVNRKSTDSPVECMGQEKGEFRE | Neutral (neutral (little effect) 4.184 kJ/mol < ΔΔG > −4.184 kJ/mol) | -0.29 kJ | – | – |
| 1DAN TU197A (protein, UniProt P13726 33-251, looked up, variant T197A, extracellular domain) extracellular domain: SGTTNTVAAYNLTWKSTNFKTILEWEPKPVNQVYTVQISTKSGDWKSKCFYTTDTECDLTDEIVKDVKQTYLARVFSYPAGNVESTGSAGEPLYENSPEFTPYLETNLGQPTIQSFEQVGTKVNVTVEDERTLVRRNNTFLSLRDVFGKDLIYTLYYWKSSSSGKKTAKTNTNEFLIDVDKGENYCFSVQAVIPSRAVNRKSTDSPVECMGQEKGEFRE | Neutral (neutral (little effect) 4.184 kJ/mol < ΔΔG > −4.184 kJ/mol) | 0.46 kJ | – | – |
